Measured values taken from article doi:10.1101/2022.02.02.478833 (bioRxiv, 2022).

T1: MOTH domain of human Otoraplin (18-128) (human, UniProt Q9NRC9 18-128, [U-15N]-enriched)
T1 sequence (looked up): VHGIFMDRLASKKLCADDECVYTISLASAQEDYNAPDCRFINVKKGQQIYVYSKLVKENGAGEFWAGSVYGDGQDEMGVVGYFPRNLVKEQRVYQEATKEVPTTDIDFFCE


How the values were obtained:
[1] = target: human TANGO1 (21-131) cargo-recognition (MOTH) domain (human) (UniProt Q5JRA6); assay: NMR titration
[2] = target: T1, MOTH domain of human Otoraplin (18-128); assay: NMR titration

Row | Kd [1] | koff [1] | Kd [2] | koff [2] | Binder
1 | 321 µM | 1100 s⁻¹ | – | – | FHNYNVEELLGFLELYNSAA [synthetic peptide of residues 132 to 151 of human TANGO1]
2 | – | – | 1300 µM | 350000 s⁻¹ | VPPPVPPRRR (peptide, UniProt Q07889 1149-1158, looked up) [class II PPII helix peptide SOS1 (1149-1158)]
